Where “and” joins values, the source holds several entries; their conditions need not be identical. Equal values may be shown once. Read-outs that look alike come from different tables or passages of the source.
What was measured:
[1] = tested on: recurrent or metastatic cervical cancer that has progressed after first-line platinum-based treatment
[2] = Phase I expansion cohorts: safety, treatment-emergent adverse events (NCI CTCAE 4.03); assay type: in vivo, human
Procedure: The combination therapy cohort enrolled patients for whom palliative hfRT was planned to a lesion that was causing some signs or symptoms. The radiated lesion was not followed as a target lesion for response assessments.
Assessments: Tumor histology was assessed per local pathology reports of tumor samples obtained at any time prior to study enrollment. […] Extensive safety evaluations were performed during screening and on Day 1 of each subsequent treatment cycle throughout the study. Routine safety evaluations were performed at each cemiplimab dosing visit. Tumor response assessments were performed by investigators, per RECIST 1.1, at the end of each 8-week treatment cycle. In combination therapy cohorts, the lesions selected for hfRT were not included in RECIST 1.1 assessments.
Statistical analysis of clinical data: The safety summaries and analyses were performed on the safety analysis set. Data were summarized using descriptive statistics, along with two-sided 95% confidence interval (CI), by dose cohort. Continuous variables were summarized with mean, median, standard deviation, minimum, and maximum. Categorical variables were summarized with frequency and percentage. Kaplan-Meier analysis was performed for progression-free survival (PFS) and OS.

cervical cancer = assay: Dose escalation cohort of the cemiplimab first-in-human study, cervical cancer patients; assay type: in vivo; settings: one cervical squamous patient, earlier response to cemiplimab+hfRT in dose escalation
From the text: (Papadopoulos et al., Clin Cancer Res (December 2019) Epub). The sum total equates to a 17% objective response rate among cervical cancer patients enrolled in the phase I study (4/23 combined; 2/3 responding patients in dose escalation plus 2/20 in expansion cohorts). All responders had squamous histology.

[3] = cemiplimab vs Gemcitabine (n = 108 vs 121)
[4] = cemiplimab vs Irinotecan (n = 26 vs 19)
[5] = cemiplimab vs Pemetrexed (n = 119 vs […])
[6] = cemiplimab vs Topotecan (n = 20 vs 21)
[7] = cemiplimab vs Vinorelbine (n = 31 vs 32)
[8] = subgroup with IC chemotherapy selected prior to randomisation: Gemcitabine (n = 108 vs 121)
[9] = subgroup with IC chemotherapy selected prior to randomisation: Irinotecan (n = 26 vs 19)
[10] = Grade 3-5, cemiplimab N=300, chemotherapy N=290
[11] = any grade, cemiplimab N=300, chemotherapy N=290

Substance: cemiplimab
- OS HR, cemiplimab vs individual IC chemotherapy [1, 3]: HR; 0.76
- PFS HR, cemiplimab vs individual IC chemotherapy [1, 3]: HR; 0.73
- OS HR, cemiplimab vs individual IC chemotherapy [1, 4]: HR; 0.69
- PFS HR, cemiplimab vs individual IC chemotherapy [1, 4]: HR; 0.77
- OS HR, cemiplimab vs individual IC chemotherapy [1, 5]: HR; 0.71
- PFS HR, cemiplimab vs individual IC chemotherapy [1, 5]: HR; 0.70
- OS HR, cemiplimab vs individual IC chemotherapy [1, 6]: HR; 0.78
- PFS HR, cemiplimab vs individual IC chemotherapy [1, 6]: HR; 0.90
- OS HR, cemiplimab vs individual IC chemotherapy [1, 7]: HR; 0.77
- PFS HR, cemiplimab vs individual IC chemotherapy [1, 7]: HR; 1.21
- OS, PFS and ORR versus each IC chemotherapy treatment ([1]; gemcitabine, pemetrexed, vinorelbine, topotecan, irinotecan subgroups): improvements with cemiplimab versus each IC chemotherapy treatment
- Median OS (95% CI) [1, 8]: 10.7 (9.2-13.3) months
- Median PFS (95% CI) [1, 8]: 2.8 (2.6-4.3) months
- ORR [1, 8]: 17.6%
- Median OS (95% CI) [1, 9]: 15.8 (11.2-NE) months
- Median PFS (95% CI) [1, 9]: 6.9 (1.9-13.8) months
- ORR [1, 9]: 23.1%
- Treatment-related TEAEs (Grade 3) ([2]; 1/10): 10%
- Treatment-related TEAE: Any ([2]; Grade ≥ 3, n = 10 per cohort): 1 n (%)
- Treatment-related TEAE: Diarrhea ([2]; Grade ≥ 3, n = 10 per cohort): 0 n (%)
- Treatment-related TEAE: Fatigue ([2]; Grade ≥ 3, n = 10 per cohort): 1 n (%)
- Treatment-related TEAE: Hyponatremia ([2]; Grade ≥ 3, n = 10 per cohort): 0 n (%)
- Treatment-related TEAE: Hypothyroidism ([2]; Grade ≥ 3, n = 10 per cohort): 0 n (%)
- Treatment-related TEAE: Myalgia ([2]; Grade ≥ 3, n = 10 per cohort): 1 n (%)
- Treatment-related TEAE: Pneumonitis ([2]; Grade ≥ 3, n = 10 per cohort): 0 n (%)
- Treatment-related TEAE: Any ([2]; any grade, n = 10 per cohort): 7 n (%)
- Treatment-related TEAE: Diarrhea ([2]; any grade, n = 10 per cohort): 2 n (%)
- Treatment-related TEAE: Fatigue ([2]; any grade, n = 10 per cohort): 3 n (%)
- Treatment-related TEAE: Hyponatremia ([2]; any grade, n = 10 per cohort): 1 n (%)
- Treatment-related TEAE: Hypothyroidism ([2]; any grade, n = 10 per cohort): 2 n (%)
- Treatment-related TEAE: Myalgia ([2]; any grade, n = 10 per cohort): 1 n (%)
- Treatment-related TEAE: Pneumonitis ([2]; any grade, n = 10 per cohort): 1 n (%)
- TEAE fatigue ([2]; both cohorts combined (5/20)): 25%
- TEAE hypokalemia ([2]; both cohorts combined (5/20)): 25%
- TEAE diarrhea ([2]; both cohorts combined (7/20)): 35%
- patients who experienced grade TEAEs ([2]; four patients of 10 per cohort): 40.0%
- TEAEs of any grade, regardless of treatment attribution ([2]; n = 10 per cohort): 9 patients
- discontinued treatment due to TEAEs ([2]; n = 10 per cohort): No patients
- response to retreatment after disease recurrence (cervical cancer): complete response
- Sponsor-identified immune-related AEs: Led to death [10]: 0 n (%)
- Treatment-emergent AEs that led to death [10]: 5 (1.7) n (%)
- Treatment-related AEs: Led to death [10]: 0 n (%)
- Number of patients with any TEAE resulting in death [11]: 5 n (%) and 5 (1.7) n (%)
- Sponsor-identified immune-related AEs: Led to death [11]: 0 n (%)
- Treatment-related AEs: Led to death [11]: 0 n (%)
- AEs observed, patients (in vivo): 88%
- Grade 3 or higher AEs, patients (in vivo): 45%
- Number of NCI grade 3/4/5 TEAEs (in vivo): 299
- Number of TEAEs (in vivo): 1969
- Number of patients with any TEAE leading to a dose interruption/delay (in vivo): 75 n (%)
- Number of patients with any TEAE leading to a dose reduction (in vivo): 0 n (%)
- Number of patients with any serious TEAE (in vivo): 89 n (%)
- Number of serious TEAEs (in vivo): 147
- Treatment-emergent AEs that led to discontinuation (in vivo): 20 (6.7) n (%)
- anemia, patients (in vivo): 25%
- asthenia, patients (in vivo): 2%
- constipation, patients (in vivo): 15%
- decreased appetite, patients (in vivo): 15%
- fatigue, patients (in vivo): 17%
- nausea, patients (in vivo): 18%
- pyrexia, patients (in vivo): less than 1%
- vomiting, patients (in vivo): 16%

Reference: patent publication US20210403567A1, “METHODS OF TREATING CERVICAL CANCER BY ADMINISTERING A PD-1 INHIBITOR” (priority 2020, published 2021)
